Data reported in the RNAGym collection of RNA variant scans (doi:10.7554/elife.90254).

B1: OR4K15 (parent)
chain: GUUAACGGUCAUAGGCCAUGGAAACUAGGAGCACCAUUUCGCUGCCAGUGAAGAAAUGAACAAAGAAAAUCUGGGCCAGGCAGGCAUCAAAAGAAAUAGUCUUGCGCUCAACCAGAAAGUCUGUAAUCAUUUUAAGGGUA

Variants of: B1
Test: self-cleavage, relative activity (ratio to wild type); higher = more cleavage; in vitro, sequencing; the parent is a self-cleaving ribozyme

Row | Variant | self-cleavage
1 | A18G U70C | 0.57
2 | G21A A51G | 1.66
3 | A18G A134G | 1.8
4 | U19C A129U | 1.39
5 | U19C A22U | 1.23
6 | U19C A22G | 1.12
7 | U19A A36G | 1.19
8 | A18G C46U | 1.34
9 | U19A A22G | 1.09
10 | U19C A62C | 1.65
11 | U19C A62G | 0.83
12 | G20U U39A | 1.57
13 | A18G A68U | 1.33
14 | U19A A63G | 1.59
15 | U19C G74C | 0.18
16 | U19C A86U | 1.8
17 | U19C A33G | 0.62
18 | A18G A110G | 0.21
19 | U19A G75C | 0.16
20 | U19A U102C | 1.65
21 | A18G U103C | 1.04
22 | G20U U70C | 0.6
23 | U19A U87C | 0.97
24 | A18U U38A | 1.02

Row | Variant | self-cleavage
25 | A18U A94U | 1.11
26 | U19C A94G | 1.53
27 | G20A A64G | 1.49
28 | U19C A92G | 1.53
29 | A18G A36U | 1.39
30 | U19G A64G | 1.49
31 | A18U A92U | 1.25
32 | U19A A118G | 0.88
33 | U19A C109U | 0.16
34 | A18G C85U | 0.98
35 | A18U U108C | 0.01
36 | U19C A64U | 1.45
37 | U19C A64G | 1.09
38 | G20U | 1.53
39 | G20C | 1.88
40 | G20A | 1.55
41 | A18G G53U | 1.66
42 | U19A A94G | 1.89
43 | A18U A52U | 1.6
44 | U19G A140G | 1.51
45 | A18U A90G | 0.53
46 | A18C A23G | 0.81
47 | A18U A111U | 0.12
48 | A18U A111G | 0.03

Row | Variant | self-cleavage
49 | G20A A91U | 2.07
50 | U19C U26C | 1.24
51 | A18U A86G | 1.01
52 | U19A A82U | 0.34
53 | G20U U37C | 1.37
54 | U19A C77U | 1.25
55 | A18U U127A | 2.41
56 | A18U A126G | 1.86
57 | U19A G44A | 2.16
58 | U19C U120C | 0.77
59 | U19C A110G | 0.08
60 | U19C A110C | 0.16
61 | U19A A117U | 0.55
62 | U19A A117G | 1.57
63 | A18G U108A | 0.03
64 | A18G U108C | 0.02
65 | U19A A23G | 1.28
66 | A18G A78U | 0.35
67 | U19G A24G | 1.16
68 | G20A A66G | 1.21
69 | U19G A33G | 0.96
70 | U19A A78G | 0.31
71 | A18U A23U | 1.88
72 | A18U A23G | 1.26

Row | Variant | self-cleavage
73 | U19A A55G | 1.79
74 | U19A A62G | 1.32
75 | A18U A27G | 1.13
76 | U19A U133C | 1.73
77 | A18U A56G | 1.48
78 | U19C C61U | 1.56
79 | A18C U131C | 0.73
80 | A18U U120C | 1.1
81 | U19C A60G | 1.23
82 | U19A A126G | 1.38
83 | U19A A126C | 0.55
84 | A18G A54G | 0.96
85 | A18G A54U | 1.25
86 | U19C A30G | 0.94
87 | A18U U37G | 1.12
88 | A18G A111G | 0.03
89 | A18U G48U | 1.24
90 | A18G G83A | 1.54
91 | U19C G83A | 1.68
92 | A18U C105U | 0.28
93 | U19C G93U | 1.5
94 | A18G U130C | 1.01
95 | A18G U130A | 1.84
96 | A18G U130G | 1.61

Row | Variant | self-cleavage
97 | A18U C128U | 1.55
98 | A18G C32U | 1.17
99 | A18G A24C | 0.96
100 | U19A U120G | 1.35
101 | A18G A118C | 0.27
102 | A18G A118G | 1.34
103 | A18G A67G | 1.03
104 | A18G A67U | 1.79
105 | A18C C113U | 0.12
106 | U19A U49C | 1.38
107 | A18U A66C | 1.22
108 | A18U A66G | 1.5
109 | G20A A56G | 1.66
110 | A18G C101A | 0.06
111 | A18C U87C | 0.67
112 | A18G U19G | 0.71
113 | A18G U97C | 1.42
114 | A18U A55G | 1.85
115 | A18U A55U | 1.49
116 | U19G A67G | 1.1
117 | A18G A69U | 1.94
118 | G21A A30G | 1.51
119 | A18G | 1.16
120 | A18U | 1.11

Row | Variant | self-cleavage
121 | A18G G115U | 0.14
122 | A18U A30U | 1.57
123 | A18C A22U | 1.71
124 | A18C A22G | 1.85
125 | U19C A55C | 1.89
126 | U19C A55U | 1.69
127 | A18G A91G | 1.41
128 | U19A A114U | 0.04
129 | U19A A114G | 0.55
130 | G21A A60G | 1.14
131 | A18U A60G | 0.68
132 | U19C A78G | 0.29
133 | U19C G48A | 1.61
134 | A18C A62C | 1.25
135 | A18C A62G | 1.36
136 | A18G U120C | 1.16
137 | A18G U120A | 2.34
138 | A18U A96G | 1.62
139 | A18U A96U | 1.88
140 | U19A G48A | 1.35
141 | U19A A90G | 0.53
142 | G20U U122A | 2.45
143 | U19A U124C | 0.9
144 | U19A U122C | 0.71

Row | Variant | self-cleavage
145 | A18U A116G | 0.63
146 | A18U A116U | 0.15
147 | G20U U72C | 0.14
148 | A18G A116U | 0.75
149 | A18G A116G | 1.17
150 | A18G C40U | 1.66
151 | A18U A24U | 1.36
152 | A18G A125G | 0.94
153 | U19C C40U | 1.67
154 | A18G U100C | 2.34
155 | U19A A54G | 1.15
156 | U19A A54U | 1.8
157 | U19C A52U | 0.93
158 | U19A U26C | 2.12
159 | U19G G115A | 0.38
160 | U19C A59G | 1.55
161 | U19C A59U | 0.81
162 | U19A A96U | 1.41
163 | A18U U39A | 1.05
164 | A18U U39C | 1.81
165 | A18U U39G | 0.98
166 | A18U U133A | 1.57
167 | U19A A56G | 1.6
